The record followed here is article PMC8746622, “Purification, Characterization, and Structural Studies of a Sulfatase from Pedobacter yulinensis” (Molecules, 2021).

Series [1] concerns the target Pedobacter yulinensis sulfatase (PyuS), recombinant, without the putative N-terminal signal peptide, C-terminal His6-tag (Pedobacter yulinensis). The series is described as follows: SEC; HiLoad 16/600 Superdex 200 pg, 10 mM Tris, 150 mM sodium chloride, pH 8.0, 1.2 mL/min, 4 °C; molecular weights of the two peaks from SEC MW standards; monomer and dimer.
Substrate in the series “purified protein”: Cc1cc(=O)oc2cc(OS(=O)(=O)O)ccc12
Briefly: purified protein. The class given is biochemical, Pedobacter yulinensis. The note with it: 25 mM Bis-Tris pH 6.5, 1.0 mM CaCl2, room temperature, SEC monomer. In general terms: Size exclusion chromatography separates by hydrodynamic size, large species first.

In general, stoichiometry N refers to the number of molecules, sites or subunits per partner or assembly. Regarding “Pedobacter yulinensis sulfatase (PyuS), recombinant, without the putative N-terminal signal peptide, C-terminal His6-tag (enzyme)”, in series [1], the percent of soluble protein as homodimer was 10% and the stoichiometry N was determined as 2.

B1: PyuS (Pedobacter yulinensis) (protein)
chain: QGSRKPNIIFIMADDLGWGELGSYGNTFNETPNLDRLSAQGMRFTQAYAAAPVCSPTRASIMTGQYPARVGITDFLPEDEKTDRWLDPTKYVTLNEALSASGYHTGIVGKWHLDTDFKLNKGGPKAHGFNEVIGTESEYIADGDYFFPYSKIASFDKGTANEYLTDRQCAEANAFITRNREKPFFLYLSLYSVHTRLEAPVQLVEKYKQKFDQKYGTGKAEQFFGANNVRHESAQRDNPWLAAMLESIDTGVGGIMKTLRETGLAENTIIVFFSDNGGAGKAGNNAHLRAGKTWLYEGGIREPLIVSWPGKIKGNTVNDNPVTSLDFYPTFLAAAGGKPTGGRLDGHNLMPLLRGGRASGRPLFWHYPSETGKWVNRMSSAVREGNYKLLEFYNNPRLELYDLQNDPSESHNLATDRPAETARLKKLLEDWKKEVNAEAPHLARKEKKKP
notes: signal peptide (native residues 2-24) removed; C-terminal GSHHHHHH tag kept; expressed in E. coli with M. tuberculosis FGE (active-site Cys converted to formylglycine, FGly55); 459 residues, 51,320 Da; SEC monomer
One may read the Km as the substrate concentration at which the rate is half of its maximum. Broadly, the kcat is the number of substrate molecules converted per active site and unit of time at saturation. Turning to B1, in “purified protein”, the Michaelis constant (Km) amounted to 1.89 mM and the catalytic constant (kcat) worked out at 0.59 min⁻¹.
